B1: LIM domain and actin-binding protein 1 (Mus musculus), Q9ERG0-1 (parent)
chain: MESTPFNRRQWTSLSLRVTAKELSLVNKNKSSAIVEIFSKYQKAAEEANMERKKNNPESLPQHFRRGTLSVLKKKWENPVAGAEFHTDSLPNSSSEGGHTADYPPAEVTDKPAPGVRADREEHTQPKPRFGSRPEAVIQSRYPRSENSHDFKAQATESQKMENCLGDSRHEAEKPETSENTETSGKIEKYNVPLNRLKMMFEKGEHNQTKSLWTQSRNAGGRRLSENNCSLDDWEIGAGHLSSSAFNSEKNESKRNLELPRLSETSIKDRMAKYQAAVSKQSSPASYTNELKTSESKTHKWEQKENVPPGPEACSVHQEGSKVSTTENSLVALSVPAEDDTCNSQVKSEAQQPMHPKPLSPDARTSSLPESSPSKTAKKFQAPAKESCVECQKTVYPMERLLANQQVFHISCFRCSYCNNKLSLGTYASLHGRIYCKPHFNQLFKSKGNYDEGFGHKQHKDLWASKSDNEETLGRPAQPPNAGESPHSPGVEDAPIAKVGVLAASMEAKASSQREREDKPAETKKLRIAWPPPAELGGSGSALEEGIKVSKPKWPPEDDVCKTEAPEDVDLDLKKLRRSSSLKERSRPFTVAASFRTSSIKSPKASSPSLRKGWSESEQSEEFGGGIATMERKQTENARPSGEKENVGKSRWQGEEVPRSKDRSSFELESENFMENGANIAEDDNHVHAQQSPLEPEAPGWSGFVDTTAAKEFTTQNQKSQDVGFWEGEVVRELSVEEQIKRNRYYDEDEDEE
partner: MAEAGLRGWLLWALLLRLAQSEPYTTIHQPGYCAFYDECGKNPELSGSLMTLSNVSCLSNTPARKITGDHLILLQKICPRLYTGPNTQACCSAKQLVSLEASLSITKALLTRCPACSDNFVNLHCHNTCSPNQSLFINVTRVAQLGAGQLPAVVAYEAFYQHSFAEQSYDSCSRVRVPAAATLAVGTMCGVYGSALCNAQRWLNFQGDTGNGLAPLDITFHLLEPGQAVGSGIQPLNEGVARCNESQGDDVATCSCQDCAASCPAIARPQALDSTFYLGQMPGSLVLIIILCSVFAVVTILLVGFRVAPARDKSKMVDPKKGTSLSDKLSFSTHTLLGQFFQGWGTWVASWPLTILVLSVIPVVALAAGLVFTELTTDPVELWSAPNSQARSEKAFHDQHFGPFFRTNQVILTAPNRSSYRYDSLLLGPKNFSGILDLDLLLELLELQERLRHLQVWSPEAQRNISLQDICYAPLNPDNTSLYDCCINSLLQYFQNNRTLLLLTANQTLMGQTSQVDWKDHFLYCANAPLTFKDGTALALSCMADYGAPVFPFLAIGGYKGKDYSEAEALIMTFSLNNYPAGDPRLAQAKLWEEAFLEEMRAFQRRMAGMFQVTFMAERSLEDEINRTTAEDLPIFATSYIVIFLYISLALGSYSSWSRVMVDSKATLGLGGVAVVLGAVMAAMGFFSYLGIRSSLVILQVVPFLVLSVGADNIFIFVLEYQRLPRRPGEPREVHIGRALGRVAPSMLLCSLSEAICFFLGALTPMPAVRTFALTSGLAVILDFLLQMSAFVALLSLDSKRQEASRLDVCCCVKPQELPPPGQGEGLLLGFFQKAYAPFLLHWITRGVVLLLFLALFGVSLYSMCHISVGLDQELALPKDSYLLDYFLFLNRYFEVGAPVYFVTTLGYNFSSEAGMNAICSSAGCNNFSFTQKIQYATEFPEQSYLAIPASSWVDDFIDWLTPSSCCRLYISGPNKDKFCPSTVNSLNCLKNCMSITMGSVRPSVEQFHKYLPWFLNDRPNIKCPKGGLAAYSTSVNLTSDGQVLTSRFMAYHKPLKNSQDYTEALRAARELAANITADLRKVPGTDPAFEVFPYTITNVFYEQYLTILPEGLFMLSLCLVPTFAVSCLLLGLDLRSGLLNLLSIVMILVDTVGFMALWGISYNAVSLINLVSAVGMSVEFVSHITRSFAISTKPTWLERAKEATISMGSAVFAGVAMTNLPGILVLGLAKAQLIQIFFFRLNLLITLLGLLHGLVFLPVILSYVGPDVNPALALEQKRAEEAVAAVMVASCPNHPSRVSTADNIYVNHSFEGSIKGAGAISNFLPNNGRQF
B2: NPC1-like intracellular cholesterol transporter 1 (Homo sapiens), Q9UHC9-2 (parent)
chain: B1 partner

Variants of: B1
Conditions: with NPC1L1, Q9UHC9-2

**Q.** For C164A;L165A;G166A, which “effect of a mutation on the interaction” value is on record?
**A.** The value was “disrupting interaction”.

Variants of: B1
Conditions: with NPC1L1, Q9UHC9-2
Remark: another data set of the same source

**Q.** C164A;L165A;G166A was tested. Which “effect of a mutation on the interaction” value did it give?
**A.** The value was “disrupting interaction strength”.

Variants of: B2
Conditions: with Lima1, Q9ERG0-1

**Q.** For Q1277A;K1278A;R1279A, which “effect of a mutation on the interaction” value is on record?
**A.** The value was “disrupting interaction”.

— IntAct's records for PubMed 29880681
